According to patent US20230213527A1, “COMPOSITIONS AND METHODS FOR POLYPEPTIDE ANALYSIS” (Quantum-Si Incorporated, priority 2021, published 2023):
Square brackets hold non-standard residues; d marks the D form. Ends that are not written are not given here. Cit = NC(=O)NCCC[C@H](N)C(=O)O

How the values were obtained:
[1] = test system: PS610; assay: Dynamic single-molecule sequencing, recognition by PS610; format: binding, A. tumefaciens; conditions: for Pulse Width: recognizer PS610, recognition of the N-terminal amino acid; for Median PD: peptide LAQFASIAAYASDDD, PS610 and PS961, PhTET2 and PhTET3; for Median pulse duration of tyrosine recognition by PS610: P38MAPKa-derived peptides, PS610, PS961, PS621
Procedure: The semiconductor chip was placed in the sequencing device and a chip check was performed to test electronic circuit function and to optimize laser coupling alignment. The chip was then removed from the device socket and the chip was washed twice with 50 μL of 70% isopropanol, followed by four washes with 30 μL of wash buffer (50 mM MOPS pH 8.0, 60 mM potassium acetate, 50 mM glucose, 20 mM magnesium acetate, and surfactant mix) through a flow cell attached to the chip. A second chip check was then performed. […] The chip was then washed six times with wash buffer, followed by addition of an imaging solution (wash buffer with 5 mM Trolox and an oxygen scavenging system). The laser was unblocked and the occupancy percentage (target 10-30%, Poisson distributed) was recorded by acquiring a photobleaching signal from a fluorophore attached to the peptide complex during 5 min of laser illumination. […] The laser was then blocked briefly and aminopeptidases were added to the sequencing reaction via the flow cell and mixed thoroughly (final concentration 2-8 μM PhTET2 and/or 20-80 μM PhTET3, as indicated according to the experiment). The laser was then unblocked, and data was recorded for 10 hours. For all runs, 30 μL of mineral oil was added to fluid reservoirs at each port of the flow cell to prevent evaporation during the run.
(§1) The measured signal on-chip comprises various noise components, the most dominant one being due to fluorescent emissions from diffusing recognizers in the reaction chamber. The pulse caller algorithm for a given reaction chamber starts by estimating the statistical properties of this background noise component. Once an estimate within certain error bounds has been established, the algorithm works in an online fashion observing new frames of data as they are generated. At each point in time, the algorithm maintains state indicating whether the signal is due to the background component only or a pulse from a recognizer-NAA interaction is being observed. The state transition from background to pulse is triggered using an edge detection test where the shift in signal is expected to be significant with respect to the background component's statistical distribution. The state transition from pulse to background is triggered when a small window of the most recent frames of the signal appears to conform to the background component's distribution again. The algorithm maintains an updated model of the background component as new background frames are observed. This provides robustness against drift in the signal intensity together with a feedback control loop that maintains a stable optical coupling of the laser into the chip based on any such detected drift. As detected pulses can be due to true recognizer-to-dipeptide interaction events as well as other occasional transient noise spikes, a downstream filter layer is employed to test the significance of pulse events based on their duration, intensity, and noise patterns within the context of the full timeline of the run and the entire dataset of reaction chambers.
Initial regions are determined by performing a sliding window calculation of pulse rate along the time dimension of a series of pulses. Regions with a mean pulse rate >1 pulse/min are then subdivided according to a greedy bisection approach. Here, the pulses on the left and right of each potential split are assessed for statistically significant deviation in any of four separate pulse properties—intensity, bin ratio, pulse duration, and interpulse duration—using a Mann-Whitney U Test. To define RSs, the split point with the lowest p-value for any of the four properties is used to sub-divide the region and the process continues until no regions remain with a candidate split point with p-value <10^−5 in any comparison. In this manner, transitions from one RS to the next in a region of continuous pulsing are determined a priori on the basis of changes in fluorescence properties of pulsing kinetics.

[2] = test system: PS961; assay: Dynamic single-molecule sequencing, recognition by PS961; format: binding, Planctomycetes; conditions: for Median PD, recognition of N-terminal leucine by PS961: peptides RLAFAYPDDD, RLIFAYPDDD, RLVFAYPDDD; for RS mean PD, N-terminal leucine by PS961 / RS mean duration for leucine recognition: leucine followed by threonine or phosphothreonine
Procedure: The semiconductor chip was placed in the sequencing device and a chip check was performed to test electronic circuit function and to optimize laser coupling alignment. The chip was then removed from the device socket and the chip was washed twice with 50 μL of 70% isopropanol, followed by four washes with 30 μL of wash buffer (50 mM MOPS pH 8.0, 60 mM potassium acetate, 50 mM glucose, 20 mM magnesium acetate, and surfactant mix) through a flow cell attached to the chip. A second chip check was then performed. The laser was then blocked via an integrated software-controlled shutter, peptide complex was added to a final concentration of 1-10 nM and mixed thoroughly, and the chip was incubated for 15 min. The chip was then washed six times with wash buffer, followed by addition of an imaging solution (wash buffer with 5 mM Trolox and an oxygen scavenging system). The laser was unblocked and the occupancy percentage (target 10-30%, Poisson distributed) was recorded by acquiring a photobleaching signal from a fluorophore attached to the peptide complex during 5 min of laser illumination. For NAA recognition-only assays, after peptide loading, labeled recognizer was added to a final concentration of 50 nM PS610, 100 nM PS691, or 250 nM PS961 (as indicated according to the experiment), and data was recorded for 10 hours. For dynamic sequencing assays, after peptide loading, a mixture of labeled recognizers was added to obtain final concentrations of 50 nM PS610, 100 nM PS691, and 250 nM PS961. Data was recorded for 15 min. The laser was then blocked briefly and aminopeptidases were added to the sequencing reaction via the flow cell and mixed thoroughly (final concentration 2-8 μM PhTET2 and/or 20-80 μM PhTET3, as indicated according to the experiment). The laser was then unblocked, and data was recorded for 10 hours. For all runs, 30 μL of mineral oil was added to fluid reservoirs at each port of the flow cell to prevent evaporation during the run.
as §1
Initial regions are determined by performing a sliding window calculation of pulse rate along the time dimension of a series of pulses. Regions with a mean pulse rate >1 pulse/min are then subdivided according to a greedy bisection approach.

[3] = target: T1, PS621 (Kluyveromyces lactis, UniProt O60014, E174T/N105S/N176F/R116K/S153T/V146T); assay: Dynamic single-molecule sequencing, recognition by PS621; format: binding; conditions: for PW of R-X / RS R-X: unmodified arginine peptide; for PW of R-X / PW of ADMA-X / RS ADMA-X / RS R-X: average of 10 sequencing reactions; for PW of ADMA-X / RS ADMA-X: ADMA peptide; for RS ADMA-X / RS R-X: RS duration; for Median interpulse duration (IPD) of arginine recognition by PS621 / Binding with the recognizer PS621: P38MAPKa-derived peptides; for Binding with the recognizer PS621: residue at position 2
T1 construct: PS621; […]
Excerpt: PTM detection involved isolating peptides and subjecting them to a real-time single-molecule protein sequencing reaction. Proteins were first digested into peptide fragments and conjugated C-terminally to macromolecular linkers. The peptide complexes were immobilized at the bottom of nanoscale wells on a semiconductor chip, resulting in single peptide molecules with exposed N-termini ready for sequencing. During the sequencing reaction, the surface-immobilized peptides were exposed to a solution containing dye-labeled NAA recognizers that bound on and off to their cognate NAAs with characteristic kinetic properties. Aminopeptidases in solution sequentially removed individual NAAs to expose subsequent amino acids for recognition. Fluorescence lifetime, intensity, and kinetic data were collected in real time and analyzed to determine amino acid sequence and PTM content.
The trace-level output included distinct pulsing regions called recognition segments (RSs); each RS corresponded to a period of time between aminopeptidase cleavage events during which an NAA recognizer bound on and off to its exposed target NAA. Chemical modifications to a target NAA or to a nearby downstream amino acid can modulate recognizer affinity, resulting in a characteristic change in the average pulse duration (PD) during an RS relative to an unmodified peptide. These modifications can also influence the rate of aminopeptidase cleavage of an NAA, resulting in a characteristic change in average duration of the corresponding RS.
Synthetic peptides corresponding to residues 69 to 76 of P38MAPKa were generated in three versions containing either arginine, ADMA, or SDMA at position 2: YRELRLLK (SEQ ID NO: 834), YRADMAELRLLK (SEQ ID NO: 835), and YRSDMAELRLLK (SEQ ID NO: 836). Each peptide was sequenced using three recognizers—PS610 (F, Y, W), PS961 (L, I, V), and PS621 (R)—and data were analyzed to identify RSs, determine the mean PD of each RS, and characterize the kinetic signature of each peptide.
In this example, sequencing reactions were performed using PS621 (R), PS610 (FYW), and PS961 (LIV) recognizers for 9 pairs of peptides. Each pair comprised one peptide comprising an unmodified arginine residue followed by a non-arginine amino acid (referred to as an R-X peptide) and one peptide having an identical sequence except that the unmodified arginine was modified to be ADMA (referred to as an ADMA-X peptide).

T1 sequence (O60014 other isoform, or with tags, fused parts or gaps N105S/R116K/V146T/S153T/E174T/N176F): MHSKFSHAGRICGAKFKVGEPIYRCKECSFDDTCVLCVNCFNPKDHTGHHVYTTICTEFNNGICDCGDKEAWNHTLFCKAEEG
Sequence of PS961 (as listed by the source): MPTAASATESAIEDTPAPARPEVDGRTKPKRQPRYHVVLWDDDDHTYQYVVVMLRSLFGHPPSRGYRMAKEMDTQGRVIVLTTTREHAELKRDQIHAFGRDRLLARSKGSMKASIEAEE

FCitLAFAYPDDDK (F[Cit]LAFAYPDDDK-NH2; also: C-terminal azidolysine (general statement for all synthetic peptides)) [QP1029]
Pulse Width [1]: 5.24 s

FRLAFAYPDDDK (FRLAFAYPDDDK-NH2; not fully specified (residue 2); also: all synthetic peptides contained C-terminal Fmoc-azidolysine) [QP1028]
Pulse Width [1]: 4.94 s

LAQFASIAAYASDDD
Median PD ([1]; listed as FAS): 1.43 s
Median PD ([1]; listed as YAS): 0.66 s
Median PD ([2]; peptide LAQFASIAAYASDDD, PS610 and PS961, PhTET2 and PhTET3): 2.70 s

LRAAFAYPDDDK [QP747]
PW of R-X [3]: <0.12 s

LRADMAAAFAYPDDDK [QP743]
PW of ADMA-X [3]: 0.19 s

LRADMAEAFAYPDDDK [QP939]
PW of ADMA-X [3]: 0.34 s

LRADMAIAFAYPDDDK [QP745]
PW of ADMA-X [3]: 0.32 s
RS ADMA-X [3]: 46.9 min

LRADMALAFAYPDDDK [QP729]
PW of ADMA-X [3]: 0.48 s
RS ADMA-X [3]: 48.5 min

LRADMAQAFAYPDDDK [QP944]
PW of ADMA-X [3]: 0.21 s

LRADMASAFAYPDDDK [QP744]
PW of ADMA-X [3]: 0.55 s

LRADMATAFAYPDDDK [QP945]
PW of ADMA-X [3]: <0.06 s

LRADMAVAFAYPDDDK [QP946]
PW of ADMA-X [3]: 0.32 s
RS ADMA-X [3]: 33.8 min

LRADMAYAFAYPDDDK [QP742]
PW of ADMA-X [3]: 0.25 s
RS ADMA-X [3]: 39.2 min

LREAFAYPDDDK [QP938]
PW of R-X [3]: <0.06 s

LRIAFAYPDDDK [QP749]
RS R-X [3]: 15.4 min
PW of R-X [3]: 0.28 s

LRQAFAYPDDDK [QP941]
PW of R-X [3]: <0.06 s

LRSAFAYPDDDK [QP748]
PW of R-X [3]: <0.12 s

LRTAFAYPDDDK [QP942]
PW of R-X [3]: <0.06 s

LRVAFAYPDDDK [QP943]
RS R-X [3]: 25.5 min
PW of R-X [3]: 0.41 s

LRYAFAYPDDDK [QP746]
RS R-X [3]: 9.6 min
PW of R-X [3]: 0.18 s

RLAFAYPDDD
Median PD, recognition of N-terminal leucine by PS961 [2]: 1.29 s

RLIFAYPDDD
Median PD, recognition of N-terminal leucine by PS961 [2]: 2.22 s

RLMFAYPDDD (not fully specified (residue 3, C-terminus); also: all synthetic peptides contained C-terminal Fmoc-azidolysine)
Median PD of leucine recognition, first population of traces ([2]; leucine followed by methionine (LM)): 0.86 s
Median PD of leucine recognition, second population of traces ([2]; methionine not recognized, oxidized (LMo)): 0.35 s

RLTFIAYPDDD (not fully specified (residue 3, C-terminus); also: all synthetic peptides contained C-terminal Fmoc-azidolysine)
RS mean PD, N-terminal leucine by PS961 [2]: 1.2 s
RS mean duration for leucine recognition [2]: 8.1 min

RLVFAYPDDD
Median PD, recognition of N-terminal leucine by PS961 [2]: 4.21 s

RLpTFIAYPDDD
RS mean PD, N-terminal leucine by PS961 [2]: 0.3 s
RS mean duration for leucine recognition [2]: 130 min

YCitIAFAYPDDDK (Y[Cit]IAFAYPDDDK-NH2; also: C-terminal azidolysine (general statement for all synthetic peptides)) [QP1031]
Pulse Width [1]: 1.12 s

YRADMAE (YRELRLLK) [YRADMAELRLLK, P38MAPKa peptide with asymmetric dimethylarginine at position 2]
Median pulse duration of tyrosine recognition by PS610 [1]: 1.47 s
Median interpulse duration (IPD) of arginine recognition by PS621 [3]: 5.82 s
Binding with the recognizer PS621 [3]: binding

YRELRLLK
Median pulse duration of tyrosine recognition by PS610 [1]: 0.69 s
Median interpulse duration (IPD) of arginine recognition by PS621 [3]: 10.05 s
Binding with the recognizer PS621 [3]: binding

YRIAFAYPDDDK (YRIAFAYPDDDK-NH2; not fully specified (residue 2); also: all synthetic peptides contained C-terminal Fmoc-azidolysine) [QP1030]
Pulse Width [1]: 0.77 s

YRSDMAELRLLK (YRELRLLK) [P38MAPKa peptide with symmetric dimethylarginine at position 2]
Median pulse duration of tyrosine recognition by PS610 [1]: 1.48 s
Binding with the recognizer PS621 [3]: no binding
